We go through two molecules from publication PMC7022188 (Proceedings of the National Academy of Sciences of the …, 2020).

Experiment [1] has as its target ctPrp2 as used for ITC and for in-solution cross-linking (Chaetomium thermophilum). Put plainly: ITC. For orientation: In ITC the heat of successive injections is recorded.
In experiment [2] the target is T1, ctPrp2-ctSpp2_211–254 complex (ctPrp2_270–921 with ctSpp2G-patch) (Thermochaetoides thermophila, UniProt G0SEG4).
T1 sequence (G0SEG4 270-921): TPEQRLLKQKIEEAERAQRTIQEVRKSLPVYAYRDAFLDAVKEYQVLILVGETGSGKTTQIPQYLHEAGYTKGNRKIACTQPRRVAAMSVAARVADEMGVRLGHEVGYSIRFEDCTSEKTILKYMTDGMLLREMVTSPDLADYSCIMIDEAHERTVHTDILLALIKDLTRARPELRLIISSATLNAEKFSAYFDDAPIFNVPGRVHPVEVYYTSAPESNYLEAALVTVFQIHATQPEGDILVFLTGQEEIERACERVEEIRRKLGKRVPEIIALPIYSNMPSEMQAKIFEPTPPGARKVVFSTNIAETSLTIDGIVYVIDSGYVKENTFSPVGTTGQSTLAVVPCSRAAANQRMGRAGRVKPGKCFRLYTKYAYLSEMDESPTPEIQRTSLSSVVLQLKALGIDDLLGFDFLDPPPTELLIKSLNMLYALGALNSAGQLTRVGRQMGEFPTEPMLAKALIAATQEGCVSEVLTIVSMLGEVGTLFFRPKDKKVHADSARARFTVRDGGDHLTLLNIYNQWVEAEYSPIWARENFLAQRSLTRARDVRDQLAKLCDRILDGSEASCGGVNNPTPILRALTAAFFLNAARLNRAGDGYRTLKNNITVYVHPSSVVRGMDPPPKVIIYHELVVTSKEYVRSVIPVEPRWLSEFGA
T1 sequence (G0SFN3 211-254 partner): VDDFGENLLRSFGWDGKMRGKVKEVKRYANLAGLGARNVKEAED
Put plainly: ITC. The class given is binding.

A word on the Kd: it is a measure of binding affinity in units of concentration. A lower Kd goes with tighter binding.

In experiment [1], “ctSpp2_(211–254), G-patch domain of Spp2 from Chaetomium thermophilum (domain or fragment)” had a Kd of 0.72 µM.
With `Nc1ncnc2c1ncn2[C@@H]1O[C@H](COP(=O)(O)OP(=O)(O)O)[C@@H](O)[C@H]1O` [ADP], the equilibrium dissociation constant (Kd) in experiment [2] is roughly 0.172 µM.
